According to publication PMC12606367, “CryoEM and computational modeling structural insights into the pH regulator NBCn1” (Nature Communications, 2025):

Target: the molecule itself
Experiment: cryo-EM structure; purified NBCn1 (~1.5 mg/ml) in 20 mM Tris-HCl, 115 mM NaCl, 25 mM NaHCO3, pH 7.4, 0.01% LMNG; dimer peak of Superose 6 put on grids; three dimeric states (3.5, 3.4, 3.3 Å), final map 3.3 Å

B1: N-terminally Strep(II)-tagged wt-human NBCn1-A (natural protein, UniProt Q9Y6M7-1 1-1214, looked up)
chain: MERFRLEKKLPGPDEEAVVDLGKTSSTVNTKFEKEELESHRAVYIGVHVPFSKESRRRHRHRGHKHHHRRRKDKESDKEDGRESPSYDTPSQRVQFILGTEDDDEEHIPHDLFTEMDELCYRDGEEYEWKETARWLKFEEDVEDGGDRWSKPYVATLSLHSLFELRSCILNGTVMLDMRASTLDEIADMVLDNMIASGQLDESIRENVREALLKRHHHQNEKRFTSRIPLVRSFADIGKKHSDPHLLERNGEGLSASRHSLRTGLSASNLSLRGESPLSLLLGHLLPSSRAGTPAGSRCTTPVPTPQNSPPSSPSISRLTSRSSQESQRQAPELLVSPASDDIPTVVIHPPEEDLEAALKGEEQKNEENVDLTPGILASPQSAPGNLDNSKSGEIKGNGSGGSRENSTVDFSKVDMNFMRKIPTGAEASNVLVGEVDFLERPIIAFVRLAPAVLLTGLTEVPVPTRFLFLLLGPAGKAPQYHEIGRSIATLMTDEIFHDVAYKAKDRNDLLSGIDEFLDQVTVLPPGEWDPSIRIEPPKSVPSQEKRKIPVFHNGSTPTLGETPKEAAHHAGPELQRTGRLFGGLILDIKRKAPFFLSDFKDALSLQCLASILFLYCACMSPVITFGGLLGEATEGRISAIESLFGASLTGIAYSLFAGQPLTILGSTGPVLVFEKILYKFCRDYQLSYLSLRTSIGLWTSFLCIVLVATDASSLVCYITRFTEEAFAALICIIFIYEALEKLFDLGETYAFNMHNNLDKLTSYSCVCTEPPNPSNETLAQWKKDNITAHNISWRNLTVSECKKLRGVFLGSACGHHGPYIPDVLFWCVILFFTTFFLSSFLKQFKTKRYFPTKVRSTISDFAVFLTIVIMVTIDYLVGVPSPKLHVPEKFEPTHPERGWIISPLGDNPWWTLLIAAIPALLCTILIFMDQQITAVIINRKEHKLKKGAGYHLDLLMVGVMLGVCSVMGLPWFVAATVLSISHVNSLKVESECSAPGEQPKFLGIREQRVTGLMIFILMGLSVFMTSVLKFIPMPVLYGVFLYMGVSSLKGIQLFDRIKLFGMPAKHQPDLIYLRYVPLWKVHIFTVIQLTCLVLLWVIKVSAAAVVFPMMVLALVFVRKLMDLCFTKRELSWLDDLMPESKKKKEDDKKKKEKEEAERMLQDDDDTVHLPFEGGSLLQIPVKALKYSPDKPVSVKISFEDEPRKKYVDAETSL
modifications: N-acetylglucosamine on Asn776, Asn786 and Asn796; disulfide bonds Cys766-Cys814 and Cys768-Cys802
notes: human NBCn1-A (SLC4A7), NP_003606.3, 1214 aa, full length; the atomic model holds residues 581 to 1207; Homodimer in the cryoEM map; only residues 581-1207 (transmembrane domain and C-terminal helix) were built, the cytoplasmic N-terminal part is not in the model; also called SLC4A7; full-length human NBCn1; source: HEK293 cells, transfected (pcDNA3.1(+)), purified (StrepTrap HP, Superose 6 SEC, …)
  stoichiometry N: 2
